# Source: paper PMC10336005, “Architectural basis for cylindrical self-assembly governing Plk4-mediated centriole duplication in human cells” (Communications Biology, 2023)
# B1: Cep152 (1205–1295) (domain or fragment)
# chain: GALEELRGQYIKAVKKIKCDMLRYIQESKERAAEMVKAEVLRERQETARKMRKYYLICLQQILQDDGKEGAEKKIMNAASKLATMAKLLET
# B2: His-Cep63 (424–541) (domain or fragment)
# chain: LHQRDITIASTKGSSSDMEKRLRAEMQKAEDKAVEHKEILDQLESLKLENRHLSEMVMKLELGLHECSLPVSPLGSIATRFLEEEELRSHHILERLDAHIEELKRESEKTVRQFTALK
# B3: Cep63 (440–490) (domain or fragment, human, UniProt Q96MT8 440-490, looked up)
# chain: DMEKRLRAEMQKAEDKAVEHKEILDQLESLKLENRHLSEMVMKLELGLHEA
# notes: Cep63, human, residues 440–490; The structure was phased by SAD; also called Cep63 (440–490) WT; Cep63 (440–490) dimer; source: E. coli BL21(DE3) RIL, purified (Ni-NTA, TEV digestion, Sephacryl S-100 HR SEC); selenomethionine-substituted protein from E. coli B834(DE3); not shown: (His)6, N-terminal, cleaved; MBP, N-terminal, cleaved
# B4: Cep63 (440–490) (L445A, A456K, L463K) (domain or fragment, human, UniProt Q96MT8 440-490, looked up)
# chain: DMEKRARAEMQKAEDKKVEHKEIKDQLESLKLENRHLSEMVMKLELGLHEA
# notes: Cep63, human, residues 440–490 with L445A, A456K, L463K; also called AKK; pKM6657; source: E. coli BL21(DE3) RIL, purified (Ni-NTA, TEV digestion, Sephacryl S-100 HR SEC); not shown: (His)6, N-terminal, cleaved; MBP, N-terminal, cleaved
# Legend:
# [1] = target: Cep63 (424–541)•Cep152 (1205–1295) heterotetrameric complex (human) (UniProt O94986); assay: AUC; sedimentation equilibrium, 4 °C, pH 5.5 (150 mM NaCl, 50 mM citric acid/sodium citrate, 1 mM TCEP, 5% glycerol); 12.6, 25 and 55 µM fitted globally; reversible tetramer–octamer–hexadecamer model (heterotetramer to octamer, octamer to hexadecamer)
# [2] = target: His-Cep63 (424–541) (human); assay: AUC; sedimentation velocity, 50,000 rpm, 4 °C, 150 mM NaCl, 20 mM Tris pH 8.0, 0.5 mM TCEP, 5% glycerol
# [3] = target: T1, Cep152 (1205–1295) (human, UniProt O94986-3 1205-1295); assay: heterotetramer formation (2:2), iSCAMS; printed as <~60 nM
# T1 chain: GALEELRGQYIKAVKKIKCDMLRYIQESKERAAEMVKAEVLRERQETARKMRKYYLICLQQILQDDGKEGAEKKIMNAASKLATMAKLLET
# [4] = target: the molecule itself; assay: SEC-MALS; Cep63 (440–490), Wyatt SEC-MALS system
# [5] = target: the molecule itself; assay: SEC; SEC elution of Cep63 (440–490) triple mutants (Supplementary Fig. 3d)
molecule,measurement,setting,value
Cep63 (424–541)•Cep152 (1205–1295) heterotetrameric complex (from UniProt O94986-3 1205-1295),"Kd, octamer–octamer interaction (octamer–hexadecamer step)",[1],2200 nM
same,"Kd, tetramer–tetramer interaction (tetramer–octamer step)",[1],370000 nM
same,"k16 (dissociation constant of the hexadecamer into four tetramers, c4^4/c16)",[1],3e-13 M^3
same,stoichiometry N (heterotetramers in the oligomer),[1],4
B1,stoichiometry N (Cep63:Cep152 ratio (2:2)),[2],1
B2,Kd,[3],< 60 nM
B3,stoichiometry N,[4],2
B4,binding result,[5],binds
